Our source for the Bmax and Kd values is patent publication US20250163186A1 (PHYLAXIS BIOSCIENCE, published 2025).

As usually defined, the Kd is the free concentration of one partner at which half of the binding sites on the other are occupied at equilibrium, for simple one-to-one binding.

To fix the notation:
B1: hzB10v4-NNT (Fc fusion)
VHH-Fc: EVQLVQSGGELVQAGGSLRLSCVASGLTFSSYNMGWLRQAPGKEREFVGMSGSSSTSTYYAESVKGRFTISRDNAKNTLYLQMSSLRAEDTAVYYCAARRMLSTYWSDRSWDFWGQGTQVTVKPGGPSVFLFPPKPKDTLMISRTPEVTCVVVDVSHEDPEVKFNWYVDGVEVHNAKTKPREEQYNSTYRVVSVLTVLHQDWLNGKEYKCKVSNKALPAPIEKTISKAKGQPREPQVYTLPPSRDELTKNQVNLTCLVKGFYPSDIAVEWESNGQPENNYKTTPPVLDSDGSFFLNSTLTVDKSRWQQGNVFSCSVMHEALHNHYTQKSLSLSPGK
notes: monomeric
B2: hzB10v3-NNT (Fc fusion)
VHH-Fc: EVQLVQSGGELVQAGGSLRLSCVASGLTFSSYNMGWVRQAPGKEREFVGMSGSSSTSTYYADSVKGRFTISRDNSKNTVYLQMNSLKPEDTAVYYCAARRMLSTYWSDRSWDFWGQGTQVTVKPGGPSVFLFPPKPKDTLMISRTPEVTCVVVDVSHEDPEVKFNWYVDGVEVHNAKTKPREEQYNSTYRVVSVLTVLHQDWLNGKEYKCKVSNKALPAPIEKTISKAKGQPREPQVYTLPPSRDELTKNQVNLTCLVKGFYPSDIAVEWESNGQPENNYKTTPPVLDSDGSFFLNSTLTVDKSRWQQGNVFSCSVMHEALHNHYTQKSLSLSPGK
notes: monomeric
B3: hzB10v2-NNT (Fc fusion)
VHH-Fc: EVQLVQSGGELVQAGGSLRLSCVASGLTFSSYNMGWVRQAPGKEREFVSMSGSSSTSTYYADSVKGRFTISRDNSKNTVYLQMNSLKPEDTAVYYCAARRMLSTYWSDRSWDFWGQGTQVTVKPGGPSVFLFPPKPKDTLMISRTPEVTCVVVDVSHEDPEVKFNWYVDGVEVHNAKTKPREEQYNSTYRVVSVLTVLHQDWLNGKEYKCKVSNKALPAPIEKTISKAKGQPREPQVYTLPPSRDELTKNQVNLTCLVKGFYPSDIAVEWESNGQPENNYKTTPPVLDSDGSFFLNSTLTVDKSRWQQGNVFSCSVMHEALHNHYTQKSLSLSPGK
notes: monomeric
B4: hzB10v5-NNT (Fc fusion)
VHH-Fc: EVQLVQSGGELVQAGGSLRLSCVASGLTFSSYNMGWLRQAPGKEREFVGMSGSSSTSTYYADSVKGRFTISRDNSKNTVYLQMNSLKPEDTAVYYCAARRMLSTYWSDRSWDFWGQGTQVTVEPGGPSVFLFPPKPKDTLMISRTPEVTCVVVDVSHEDPEVKFNWYVDGVEVHNAKTKPREEQYNSTYRVVSVLTVLHQDWLNGKEYKCKVSNKALPAPIEKTISKAKGQPREPQVYTLPPSRDELTKNQVNLTCLVKGFYPSDIAVEWESNGQPENNYKTTPPVLDSDGSFFLNSTLTVDKSRWQQGNVFSCSVMHEALHNHYTQKSLSLSPGK
notes: monomeric
B5: hzB10v7-NNT (Fc fusion)
VHH-Fc: EVQLVQSGGELVQAGGSLRLSCVASGLTFSSYNMGWLRQAPGKEREFVGLSGSSSTSTYYADSVKGRFTISRDNSKNTVYLQMNSLKPEDTAVYYCAARRMLSTYWSDRSWDFWGQGTQVTVKPGGPSVFLFPPKPKDTLMISRTPEVTCVVVDVSHEDPEVKFNWYVDGVEVHNAKTKPREEQYNSTYRVVSVLTVLHQDWLNGKEYKCKVSNKALPAPIEKTISKAKGQPREPQVYTLPPSRDELTKNQVNLTCLVKGFYPSDIAVEWESNGQPENNYKTTPPVLDSDGSFFLNSTLTVDKSRWQQGNVFSCSVMHEALHNHYTQKSLSLSPGK
notes: monomeric
B6: hzB10v6-NNT (Fc fusion)
VHH-Fc: EVQLVQSGGELVQAGGSLRLSCVASGLTFSSYNMGWLRQAPGKEREFVGMSGSSSTSTYYADSVKGRFTISRDNSKNTVYLQMNSLKPEDTAVYYCAARRMLSTYWSDRSWDFWGQGTQVTVRPGGPSVFLFPPKPKDTLMISRTPEVTCVVVDVSHEDPEVKFNWYVDGVEVHNAKTKPREEQYNSTYRVVSVLTVLHQDWLNGKEYKCKVSNKALPAPIEKTISKAKGQPREPQVYTLPPSRDELTKNQVNLTCLVKGFYPSDIAVEWESNGQPENNYKTTPPVLDSDGSFFLNSTLTVDKSRWQQGNVFSCSVMHEALHNHYTQKSLSLSPGK
notes: monomeric
B7: hzB10v1-NNT (Fc fusion)
VHH-Fc: EVQLLESGGGLVQPGGSLRLSCVASGLTFSSYNMGWLRQAPGKEREFVGMSGSSSTSTYYADSVKGRFTISRDNSKNTVYLQMNSLKPEDTAVYYCAARRMLSTYWSDRSWDFWGQGTQVTVKPGGPSVFLFPPKPKDTLMISRTPEVTCVVVDVSHEDPEVKFNWYVDGVEVHNAKTKPREEQYNSTYRVVSVLTVLHQDWLNGKEYKCKVSNKALPAPIEKTISKAKGQPREPQVYTLPPSRDELTKNQVNLTCLVKGFYPSDIAVEWESNGQPENNYKTTPPVLDSDGSFFLNSTLTVDKSRWQQGNVFSCSVMHEALHNHYTQKSLSLSPGK
notes: monomeric
B8: hzB10v14-NNT (Fc fusion)
VHH-Fc: EVQLLESGGGEVQPGGSLRLSCVASGLTFSSYNMGWLRQAPGKEREFVGLSGSSSTSTYYADSVKGRFTISRDNSKNTVYLQMNSLKPEDTAVYYCAARRLLSTYWSDRSWDFWGQGTQVTVEPGGPSVFLFPPKPKDTLMISRTPEVTCVVVDVSHEDPEVKFNWYVDGVEVHNAKTKPREEQYNSTYRVVSVLTVLHQDWLNGKEYKCKVSNKALPAPIEKTISKAKGQPREPQVYTLPPSRDELTKNQVNLTCLVKGFYPSDIAVEWESNGQPENNYKTTPPVLDSDGSFFLNSTLTVDKSRWQQGNVFSCSVMHEALHNHYTQKSLSLSPGK
notes: monomeric
B9: hzB10v17-NNT (Fc fusion)
VHH-Fc: EVQLLESGGGEVQPGGSLRLSCVASGLTFSSYNMGWLRQAPGKEREFVGLSGSSSTSTYYADAVKGRFTISRDNSKNTVYLQMNSLKPEDTAVYYCAARRLLSTYWSDRSWDFWGQGTQVTVEPGGPSVFLFPPKPKDTLMISRTPEVTCVVVDVSHEDPEVKFNWYVDGVEVHNAKTKPREEQYNSTYRVVSVLTVLHQDWLNGKEYKCKVSNKALPAPIEKTISKAKGQPREPQVYTLPPSRDELTKNQVNLTCLVKGFYPSDIAVEWESNGQPENNYKTTPPVLDSDGSFFLNSTLTVDKSRWQQGNVFSCSVMHEALHNHYTQKSLSLSPGK
notes: monomeric
B10: hzB10v18-NNT (Fc fusion)
VHH-Fc: EVQLLESGGGEVQPGGSLRLSCVASGLTFSSYNMGWLRQAPGKEREFVGLSGSSSTSTYYADTVKGRFTISRDNSKNTVYLQMNSLKPEDTAVYYCAARRLLSTYWSDRSWDFWGQGTQVTVEPGGPSVFLFPPKPKDTLMISRTPEVTCVVVDVSHEDPEVKFNWYVDGVEVHNAKTKPREEQYNSTYRVVSVLTVLHQDWLNGKEYKCKVSNKALPAPIEKTISKAKGQPREPQVYTLPPSRDELTKNQVNLTCLVKGFYPSDIAVEWESNGQPENNYKTTPPVLDSDGSFFLNSTLTVDKSRWQQGNVFSCSVMHEALHNHYTQKSLSLSPGK
notes: monomeric
B11: hzB10v16-NNT (Fc fusion)
VHH-Fc: EVQLLESGGGEVQPGGSLRLSCVASGLTFSSYNMGWLRQAPGKEREFVGLSGSSSTSTYYAESVKGRFTISRDNSKNTVYLQMNSLKPEDTAVYYCAARRLLSTYWSDRSWDFWGQGTQVTVEPGGPSVFLFPPKPKDTLMISRTPEVTCVVVDVSHEDPEVKFNWYVDGVEVHNAKTKPREEQYNSTYRVVSVLTVLHQDWLNGKEYKCKVSNKALPAPIEKTISKAKGQPREPQVYTLPPSRDELTKNQVNLTCLVKGFYPSDIAVEWESNGQPENNYKTTPPVLDSDGSFFLNSTLTVDKSRWQQGNVFSCSVMHEALHNHYTQKSLSLSPGK
notes: monomeric
B12: hzB10v15-NNT (Fc fusion)
VHH-Fc: EVQLLESGGGEVQPGGSLRLSCVASGLTFSSYNMGWVRQAPGKEREFVSLSGSSSTSTYYADSVKGRFTISRDNSKNTVYLQMNSLKPEDTAVYYCAARRLLSTYWSDRSWDFWGQGTQVTVEPGGPSVFLFPPKPKDTLMISRTPEVTCVVVDVSHEDPEVKFNWYVDGVEVHNAKTKPREEQYNSTYRVVSVLTVLHQDWLNGKEYKCKVSNKALPAPIEKTISKAKGQPREPQVYTLPPSRDELTKNQVNLTCLVKGFYPSDIAVEWESNGQPENNYKTTPPVLDSDGSFFLNSTLTVDKSRWQQGNVFSCSVMHEALHNHYTQKSLSLSPGK
notes: monomeric
B13: hzB10v20-NNT (Fc fusion)
VHH-Fc: EVQLLESGGGEVQPGGSLRLSCVASGLTFSSYNMGWLRQAPGKEREFVGLSGSSSTSTYYADSVKGRFTISRDNSKNTLYLQMNSLKPEDTAVYYCAARRLLSTYWSDRSWDFWGQGTQVTVEPGGPSVFLFPPKPKDTLMISRTPEVTCVVVDVSHEDPEVKFNWYVDGVEVHNAKTKPREEQYNSTYRVVSVLTVLHQDWLNGKEYKCKVSNKALPAPIEKTISKAKGQPREPQVYTLPPSRDELTKNQVNLTCLVKGFYPSDIAVEWESNGQPENNYKTTPPVLDSDGSFFLNSTLTVDKSRWQQGNVFSCSVMHEALHNHYTQKSLSLSPGK
notes: monomeric

In this assay the target is T1, CH2-4 constant domains of human IgE linked to a transmembrane protein, on 293 cells (human, UniProt P01854-1 104-428).
T1 construct: domain: CH2-4 constant domains; also called human IgE-expressing 293 cells
T1 sequence (P01854 other isoform, or with tags, fused parts or gaps): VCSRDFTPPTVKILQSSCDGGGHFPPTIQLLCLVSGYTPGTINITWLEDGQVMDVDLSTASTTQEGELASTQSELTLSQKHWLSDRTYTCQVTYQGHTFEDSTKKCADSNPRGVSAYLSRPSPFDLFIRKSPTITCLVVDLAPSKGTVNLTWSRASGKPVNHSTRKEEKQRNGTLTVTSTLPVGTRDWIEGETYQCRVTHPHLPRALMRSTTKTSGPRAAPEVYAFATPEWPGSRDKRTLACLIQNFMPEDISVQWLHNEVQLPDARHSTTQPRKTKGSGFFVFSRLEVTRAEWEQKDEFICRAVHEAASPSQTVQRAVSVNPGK
The assay can be described thus: flow cytometry, 293 cells expressing human IgE CH2-4. The procedure: First, 25 μg of DNA was added to Opti-MEM Reduced Serum Medium (Gibco) mixed with 75 μL of 40 kDa Polyethylenimine (PEI) for a final concentration of 1 μg DNA and 2.5 μg PEI per mL of culture volume. The plasmid DNA was allowed to pre-complex with PEI for 15 minutes before transferring the mixture to 25 mL of 293 cells in a shake flask at a density of 2×10⁶ cells/mL. […] Next, 50 μL of cells were transferred to wells of a round-bottom 96-well assay plate for a total of 50,000 293 cells per well. In a separate 96-well plate, monomeric VHH-hIgG1-Fc fusion proteins were titrated 1:5 in a 8-point dilution series starting at 1 μM in FACS Buffer with the 8th point containing no antibody. 50 μL from each antibody dilution was added to wells containing 50 μL of FACS Buffer with transfected 293 cells which produced a 2-fold dilution of the antibody concentrations from the dilution series resulting in a 500 nM final, starting concentration of the test article titration. The test articles and 293 cells were incubated together at 4° C. for 30 minutes. Next, the 96-well plates were centrifuged at 400×g for 5 minutes and the FACS buffer containing unbound antibody was decanted. Cells were washed 1× with 150 μL 4° C. FACS Buffer. […] The cells were incubated with the fluorophore conjugated detection antibody at 4° C. for 20 minutes. 293 cells were then centrifuged and washed once as described above. Cell pellets were resuspended in 30 μL FACS Buffer and analyzed on an iQue Screener Plus flow cytometer (Sartorius, IntelliCyt) with a 1 second sip time and 1 second void time. Mean fluorescent intensity was calculated using iQue onboard software gating on GFP+ or citrine+ cells.
Turning to B1, the Bmax was found to be 3.89e+06 MFI and binding was put at a Kd of 75 nM.

For B2, the Bmax was determined as 1.69e+06 MFI and the Kd was determined as 342 nM.

For B3, the Bmax turned out to be 2.46e+06 MFI and the Kd was determined as 1.81 nM.

B4 returned a Kd of 2.5 nM.

Regarding B5, the Bmax amounted to 3.34e+06 MFI and the affinity, expressed as Kd, was 3.71 nM.

In the case of B6, the dissociation constant Kd was 1.95 nM.

As to B7, the Kd was found to be 1.37 nM.

In turn, B8 showed a Bmax of 1.95e+06 MFI and a Kd of 2.11 nM.

As for B9, the Bmax amounted to 2.07e+06 MFI and the equilibrium dissociation constant (Kd) is 1.7 nM.

The molecule B10 registered a Bmax of 1.95e+06 MFI and a Kd of 5.07 nM.

Molecule B11 registered a Bmax of 2.23e+06 MFI and a Kd of 1.89 nM.

Take B12: the Bmax is 1.89e+06 MFI and the Kd amounted to 10 nM.

B13 registered a Bmax of 2.24e+06 MFI and a dissociation constant Kd of 6.01 nM.
